Data on one protein can be found in FireProtDB (doi:10.1111/febs.12694).

For this data set the following is noted: Halobacterium salinarum (strain ATCC 700922 / JCM 11081 / NRC-1), Thermal, transition: 2, whole UniProt chain shown.

Several values for one entry are separate records, joined by “and”; a condition that tells them apart may be missing. Equal values may be shown once.

B1: Bacteriorhodopsin wild type, P02945 (protein)
chain: MLELLPTAVEGVSQAQITGRPEWIWLALGTALMGLGTLYFLVKGMGVSDPDAKKFYAITTLVPAIAFTMYLSMLLGYGLTMVPFGGEQNPIYWARYADWLFTTPLLLLDLALLVDADQGTILALVGADGIMIGTGLVGALTKVYSYRFVWWAISTAAMLYILYVLFFGFTSKAESMRPEVASTFKVLRNVTVVLWSAYPVVWLIGSEGAGIVPLNIETLLFMVLDVSAKVGFGLILLRSRAIFGEAEAPEPSAGDGAAATSD
Regarding B1, the Tm (in general, the temperature at which the thermal transition is half complete) is 76.6 °C (pH 3.5, DSC); 69.2 °C and 67 °C (pH 4, UV spectroscopy); 98.2 °C (pH 7, DSC); 90.5 °C (pH 7, UV spectroscopy); 94.5 °C (pH 9, DSC); 86 °C (pH 9.5, UV spectroscopy, glycine buffer).
